Assay results taken from the supplement of paper PMC10567573.

B1: SLC19A2 (parent)
chain: FHHIPSTCQRVNGIKVQNGGIVTD

Variants of: B1
Assay: protein stability index of a GFP-peptide fusion (GPS, HEK-293T) (PSI 1-6); higher = more stable
Conditions: c terminus: a fixed tail appended
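Note: lentivirally expressed fusions sorted by FACS into six bins by GFP to DsRed ratio, PSI derived from sequencing read proportions per bin multiplied by bin number.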

Variant | protein stability index
FHHIPSTCQRVNGIKVQNGMIVTD [G20M] | 2.18
FHHIPSTCQRVNGIKVQNGKIVTD [G20K] | 1.87
FHHIPSTCQRVNGIKVQNGNIVTD [G20N] | 2.29
FHHIPSTCQRVNGIKVQNGRIVTD [G20R] | 1.73
FHHIPSTCQRVNGIKVQNGCIVTD [G20C] | 1.8
FHHIPSTCQRVNGIKVQNGLIVTD [G20L] | 1.64
FHHIPSTCQRVNGIKVQNGDIVTD [G20D] | 2.2
FHHIPSTCQRVNGIKVQNGAIVTD [G20A] | 1.59
FHHIPSTCQRVNGIKVQNGPIVTD [G20P] | 2.2
FHHIPSTCQRVNGIKNQNGGIVTD [V16N] | 1.96
FHHIPSTCQRVNGIKSQNGGIVTD [V16S] | 2.26
FHHIPSTCQRVNGIKGQNGGIVTD [V16G] | 2.13
FHHIPSTCQRVNGIKDQNGGIVTD [V16D] | 2.31
FHHIPSTCQRVNGIKIQNGGIVTD [V16I] | 1.51
FHHIPSSCQRVNGIKVQNGGIVTD [T7S] | 2.31
FHHIPSCCQRVNGIKVQNGGIVTD [T7C] | 2.21
FHHIPSECQRVNGIKVQNGGIVTD [T7E] | 2.32
FHHIPSRCQRVNGIKVQNGGIVTD [T7R] | 1.77
FHHIPSPCQRVNGIKVQNGGIVTD [T7P] | 1.91
FHHIPSNCQRVNGIKVQNGGIVTD [T7N] | 2.42
FHHIPSKCQRVNGIKVQNGGIVTD [T7K] | 2.23
FHHIPSDCQRVNGIKVQNGGIVTD [T7D] | 2.58
FHHIPSTCQRVNTIKVQNGGIVTD [G13T] | 2.28
FHHIPSTCQRVNPIKVQNGGIVTD [G13P] | 1.85

Variant | protein stability index
FHHIPSTCQRVNVIKVQNGGIVTD [G13V] | 1.73
FHHIPSTCQRVNLIKVQNGGIVTD [G13L] | 1.58
FHHIPSTCQRVNHIKVQNGGIVTD [G13H] | 1.64
FHHIPSTCQRVNEIKVQNGGIVTD [G13E] | 2.13
FHHIPSTCQRVNAIKVQNGGIVTD [G13A] | 1.77
FHHIPSTCQRVNDIKVQNGGIVTD [G13D] | 2
FHIIPSTCQRVNGIKVQNGGIVTD [H3I] | 1.59
FHVIPSTCQRVNGIKVQNGGIVTD [H3V] | 3.16
FHFIPSTCQRVNGIKVQNGGIVTD [H3F] | 1.39
FHCIPSTCQRVNGIKVQNGGIVTD [H3C] | 1.92
FHYIPSTCQRVNGIKVQNGGIVTD [H3Y] | 2.11
FHLIPSTCQRVNGIKVQNGGIVTD [H3L] | 1.96
FHKIPSTCQRVNGIKVQNGGIVTD [H3K] | 2.79
FHNIPSTCQRVNGIKVQNGGIVTD [H3N] | 2.25
FHHIPSTCQRVNGIKVMNGGIVTD [Q17M] | 1.09
FHHIPSTCQRVNGIKVFNGGIVTD [Q17F] | 1.41
FHHIPSTCQRVNGIKVTNGGIVTD [Q17T] | 1.67
FHHIPSTCQRVNGIKVDNGGIVTD [Q17D] | 2.05
FHHIPSTCQRVNGIKVRNGGIVTD [Q17R] | 2.81
FHHIPSTCQRVNGIKVKNGGIVTD [Q17K] | 2.66
FHHIPSTCQRVNGIKVPNGGIVTD [Q17P] | 2.35
FHHIPSTCQRVNGIKVVNGGIVTD [Q17V] | 2.1
FHHIPSTCQRVNGFKVQNGGIVTD [I14F] | 2.32
FHHIPSTCQRVNGVKVQNGGIVTD [I14V] | 1.69

Variant | protein stability index
FHHIPSTCQRVNGMKVQNGGIVTD [I14M] | 2.23
FHHIPSTCQRVNGHKVQNGGIVTD [I14H] | 2.31
FHHIPSTCQRVNGDKVQNGGIVTD [I14D] | 1.88
FHHIPSTCQRVNGAKVQNGGIVTD [I14A] | 2.2
FHHIPSTCQRVNGLKVQNGGIVTD [I14L] | 2
FHHIPSTCQRVNGGKVQNGGIVTD [I14G] | 2.6
FHHIPSTCQRVNGQKVQNGGIVTD [I14Q] | 2.14
FHHIPSTCQSVNGIKVQNGGIVTD [R10S] | 1.89
FHHIPSTCQNVNGIKVQNGGIVTD [R10N] | 1.6
FHHIPSTCQIVNGIKVQNGGIVTD [R10I] | 1.98
FHHIPSTCQAVNGIKVQNGGIVTD [R10A] | 1.81
FHHIPSTCQMVNGIKVQNGGIVTD [R10M] | 1.67
FHHIPSTCQCVNGIKVQNGGIVTD [R10C] | 2.36
FHHIPSTCQVVNGIKVQNGGIVTD [R10V] | 2.46
FHHIPSTCQQVNGIKVQNGGIVTD [R10Q] | 1.87
FHHIPSTCQKVNGIKVQNGGIVTD [R10K] | 1.91
FHHIPSTCQHVNGIKVQNGGIVTD [R10H] | 2.5
FHHIPITCQRVNGIKVQNGGIVTD [S6I] | 1.71
FHHIPVTCQRVNGIKVQNGGIVTD [S6V] | 2.07
FHHIPWTCQRVNGIKVQNGGIVTD [S6W] | 3.58
FHHIPETCQRVNGIKVQNGGIVTD [S6E] | 2.22
FHHIPMTCQRVNGIKVQNGGIVTD [S6M] | 1.92
FHHIPGTCQRVNGIKVQNGGIVTD [S6G] | 1.93
FHHIPSTCQRSNGIKVQNGGIVTD [V11S] | 1.93

Variant | protein stability index
FHHIPSTCQRPNGIKVQNGGIVTD [V11P] | 2.54
FHHIPSTCQRINGIKVQNGGIVTD [V11I] | 2.43
FHHIPSTCQRNNGIKVQNGGIVTD [V11N] | 2.49
FHHIPSTCQRYNGIKVQNGGIVTD [V11Y] | 2.09
FHHIPSTCQRQNGIKVQNGGIVTD [V11Q] | 2.48
FHHIPSTCQRMNGIKVQNGGIVTD [V11M] | 2.26
FHHIPSTCQRLNGIKVQNGGIVTD [V11L] | 1.59
FHHIPSTCQRCNGIKVQNGGIVTD [V11C] | 1.49
FHHMPSTCQRVNGIKVQNGGIVTD [I4M] | 2.01
FHHAPSTCQRVNGIKVQNGGIVTD [I4A] | 2.11
FHHSPSTCQRVNGIKVQNGGIVTD [I4S] | 3.05
FHHRPSTCQRVNGIKVQNGGIVTD [I4R] | 2.02
FHHYPSTCQRVNGIKVQNGGIVTD [I4Y] | 2.67
FHHHPSTCQRVNGIKVQNGGIVTD [I4H] | 1.85
FHHVPSTCQRVNGIKVQNGGIVTD [I4V] | 1.67
FHHDPSTCQRVNGIKVQNGGIVTD [I4D] | 2.91
FHHFPSTCQRVNGIKVQNGGIVTD [I4F] | 3.14
FHHTPSTCQRVNGIKVQNGGIVTD [I4T] | 2
FHHIPSTCQRVNGIKVQNGGIPTD [V22P] | 2.62
FHHIPSTCQRVNGIKVQNGGIFTD [V22F] | 3.33
FHHIPSTCQRVNGIKVQNGGISTD [V22S] | 2.23
FHHIPSTCQRVNGIKVQNGGIETD [V22E] | 1.84
